These results are taken from US20170022553, “NUCLEIC ACID SEQUENCING METHODS AND SYSTEMS” (OMNIOME, INC., published 2017).

In data set [1] the target is T1, Bsu DNA polymerase I large fragment (Bacillus subtilis, UniProt O34996 O34996:297-880). In words: BLI; correct dNTP, Ni(II), 200 mM KCl, 200 mM K glutamate, 30 C. Particulars: tags: New England Biolabs M0330L; label: 5' biotin on template; primed template with 5' template overhang. The procedure:
Primer-template duplex was diluted (100 nM) into Annealing Buffer. Wash buffer was 20 mM Tris, pH 8.0, 200 mM KCl, 200 mM potassium glutamate, 0.01% (v/v), Tween-20, 100 μg/mL bovine serum albumin, 1.0 mM dithiothreitol. Binding Buffer was Wash Buffer containing 2.0 mM Ni(II)SO₄. Reaction Buffer was 20 mM Tris, pH 8.0, 50 mM KCl, MgCl₂ (10 mM), 0.01% (v/v) Tween-20, 100 μg/mL bovine serum albumin, 1.0 mM dithiothreitol. EDTA Wash Buffer was Binding Buffer containing 1.0 mM EDTA. Buffer containing Primer-Template (PT), Binding buffer containing one dNTP and Reaction Buffer were loaded (200 μL/well) into a Greiner 96-well black microplate (Sigma-Aldrich, St. Louis, Mo.; catalog number M9685), and PCR-grade mineral oil (Sigma-Aldrich, St. Louis, Mo.; catalog no. M8662) was applied (75 μL/well). High-precision streptavidin biosensors (Pall ForteBio Corp., Menlo Park, Calif.; catalog number 18-5117) were re-hydrated in Annealing Buffer for approximately 10 minutes before use. The Octet QK biosensor system (Pall ForteBio Corp., Menlo Park, Calif.) was set for 30° C. operation and was programmed to coat the biosensors with Primer-Template and wash away unbound Primer-Template with Wash Buffer. […]
On the technique in general: BLI is a label-free optical method that tracks binding on a fibre tip over time.

Data set [2] deals with T1, Bsu DNA polymerase I large fragment. The data set can be described thus: BLI; dGTP, 1 mM Ni(II), 30 C; lower amplitude, higher kobs than ALK-G1. The conditions noted are these: tags: New England Biolabs M0330L; label: 5' biotin on template; primed template with 5' template overhang. The protocol:
(§1) Primer-template duplex was diluted (100 nM) into Annealing Buffer. Wash buffer was 30 mM Tris, pH 8.0, 160 mM KCl, 160 mM potassium glutamate, 0.01% (v/v), Tween-20, 100 μg/mL bovine serum albumin, 1.0 mM dithiothreitol. Binding Buffer was Wash Buffer containing Bsu Pol I (68 Unit/mL) 100 μM dGTP+1.0 mM Ni(II)SO₄. Reaction Buffer was Wash Buffer containing Bsu (1 U/mL), MgCl₂ (80 μM), dGTP (28.1 μM), α-S-dGTP (162 μM). EDTA Wash Buffer was Wash Buffer without Ni(II)SO₄ but containing 1.0 mM EDTA. Buffer containing Primer-Template (PT), Binding Buffer and Reaction Buffer containing were loaded (200 μL/well) into a Greiner 96-well black microplate (Sigma-Aldrich, St. Louis, Mo.; catalog number M9685), and PCR-grade mineral oil (Sigma-Aldrich, St. Louis, Mo.; catalog no. M8662) was applied (75 μL/well). […]
(§2) In assays for binding to biosensor coated with ssDNA primer-template, Bsu Pol I enzyme bound strongly to the primer/template-coated biosensor in the presence of correct dGTP (FIGS. 18A and 18B). […] The association phase for formation of the ternary complex was analyzed for how the association kinetic parameters may be affected by the number of nucleotides for incorporation into the homopolymer of the primer/template.

The target in data set [3] is Bst DNA polymerase, full length (Bacillus stearothermophilus, UniProt P52026 P52026:1-876). The data set can be described thus: BLI; correct dNTP, 300 mM KCl, 30 C; minimal binding without dNTP. Particulars: tags: New England Biolabs M0328L; label: 5' biotin on template; primed template with 5' template overhang. The protocol:
Primer-template duplex was diluted (100 μM) into Annealing Buffer. Binding buffer was 50 mM Tris, pH 8.0, 300 mM KCl, 0.1% (v/v) Triton-X100, 100 μg/mL bovine serum albumin. Reaction Buffer was Binding Buffer containing 10 mM MgCl₂. Buffer containing Primer-Template (PT), Binding buffer containing one dNTP, and Reaction Buffer were loaded (200 μL/well) into a Greiner 96-well black microplate (Sigma-Aldrich, St. Louis, Mo.; catalog number M9685), and PCR-grade mineral oil (Sigma-Aldrich, St. Louis, Mo.; catalog no. M8662) was applied (75 μL/well). Streptavidin (SA) Biosensors (Pall ForteBio Corp., Menlo Park, Calif.; catalog number 18-5019) were re-hydrated in Annealing Buffer for approximately 10 minutes before use. The Octet QK biosensor system (Pall ForteBio Corp., Menlo Park, Calif.) was set for 30° C. operation and was programmed to coat the biosensors with Primer-Template and wash away unbound Primer-Template with Binding Buffer. Biosensors were transferred to Binding Buffer containing 136 Unit/mL Bst DNA Polymerase and 200 μM dNTP (dATP, dTTP, dGTP or dCTP) as indicated (association phase) followed by Reaction Buffer for dNTP incorporation. Biosensors were transferred to Reaction Buffer containing Bst DNA Polymerase (136 Unit/mL) without dNTP to promote nick translation via 5′-3′ exonuclease activity. […]

Data set [4] concerns the target T1, Bsu DNA polymerase I large fragment. In words: BLI; dGTP, 1 mM Ni(II), 30 C; highest amplitude. Particulars: tags: New England Biolabs M0330L; label: 5' biotin on template; primed template with 5' template overhang. The protocol:
as §1, §2

T1 sequence (O34996 297-880, one chain of several): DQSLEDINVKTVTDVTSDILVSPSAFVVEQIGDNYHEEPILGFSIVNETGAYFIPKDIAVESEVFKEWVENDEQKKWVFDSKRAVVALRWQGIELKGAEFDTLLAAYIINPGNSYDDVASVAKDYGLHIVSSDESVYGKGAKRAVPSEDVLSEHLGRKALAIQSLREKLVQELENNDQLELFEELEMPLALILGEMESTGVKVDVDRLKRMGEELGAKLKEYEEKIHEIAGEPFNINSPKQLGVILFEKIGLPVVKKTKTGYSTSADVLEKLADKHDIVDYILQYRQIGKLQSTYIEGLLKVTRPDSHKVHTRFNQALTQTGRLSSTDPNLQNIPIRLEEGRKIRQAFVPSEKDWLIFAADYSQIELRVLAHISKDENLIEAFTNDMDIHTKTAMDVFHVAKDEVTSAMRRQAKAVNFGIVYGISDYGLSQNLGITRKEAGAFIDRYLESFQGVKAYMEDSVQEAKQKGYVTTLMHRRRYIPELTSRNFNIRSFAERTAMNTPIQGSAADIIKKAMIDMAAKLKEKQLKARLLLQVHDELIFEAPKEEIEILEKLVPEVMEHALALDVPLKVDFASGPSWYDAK
Chain of Bst DNA polymerase, full length (P52026 whole entry, one chain of several): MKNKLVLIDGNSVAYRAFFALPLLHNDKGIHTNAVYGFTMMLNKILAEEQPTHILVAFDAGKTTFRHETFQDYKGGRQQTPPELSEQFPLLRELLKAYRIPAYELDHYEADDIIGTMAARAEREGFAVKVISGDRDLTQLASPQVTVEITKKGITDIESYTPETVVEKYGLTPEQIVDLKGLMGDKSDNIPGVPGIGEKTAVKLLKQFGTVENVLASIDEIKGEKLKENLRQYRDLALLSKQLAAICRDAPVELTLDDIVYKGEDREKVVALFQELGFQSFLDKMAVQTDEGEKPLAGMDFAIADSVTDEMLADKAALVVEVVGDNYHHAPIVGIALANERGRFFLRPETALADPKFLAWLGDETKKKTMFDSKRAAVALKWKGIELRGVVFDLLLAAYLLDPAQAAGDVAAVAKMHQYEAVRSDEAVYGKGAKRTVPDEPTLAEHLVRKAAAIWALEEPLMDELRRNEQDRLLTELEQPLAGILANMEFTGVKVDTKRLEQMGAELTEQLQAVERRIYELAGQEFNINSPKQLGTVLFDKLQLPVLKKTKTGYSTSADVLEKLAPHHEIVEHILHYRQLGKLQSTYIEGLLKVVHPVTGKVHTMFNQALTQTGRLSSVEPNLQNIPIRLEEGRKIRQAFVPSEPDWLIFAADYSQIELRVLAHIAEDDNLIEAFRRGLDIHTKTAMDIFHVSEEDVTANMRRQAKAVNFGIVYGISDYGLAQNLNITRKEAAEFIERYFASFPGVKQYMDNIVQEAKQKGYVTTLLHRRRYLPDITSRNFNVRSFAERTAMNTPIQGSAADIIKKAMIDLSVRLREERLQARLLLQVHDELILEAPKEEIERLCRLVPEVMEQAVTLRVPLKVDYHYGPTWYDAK

B1: ALK C4493A/4496-4509AS primer-template (dsDNA)
DNA 1: GTGAGCCTGCAATCCCTGCCCCGGTTCATCCTGATGGAGCTCATGGCGGG
DNA 2: CCCGCCATGAGCTC
modifications: 3' inverted dT on template
B1: in data set [1], the binding result is reported as “binds”.

B2: ALK-G4 primer-template (dsDNA)
DNA 1: GTGAGCCTGCAATCCCTGCCCCGGTTCATCCTGCTGGAGCTCATGGCGGG
DNA 2: CCCGCCATGAGCTCCAGCAGGATGAACC
modifications: 3' inverted dT on template
For B2, in data set [2], the binding result is on record as “binds”.

B3: ALK wild-type 4460-4509S/4496-4509AS primer-template (dsDNA)
DNA 1: GTGAGCCTGCAATCCCTGCCCCGGTTCATCCTGCTGGAGCTCATGGCGGG
DNA 2: CCCGCCATGAGCTC
modifications: 3' inverted dT on template
In the case of B3, the binding result in data set [3] was “binds”.

B4: ALK-G2 primer-template (dsDNA)
DNA 1: GTGAGCCTGCAATCCCTGCCCCGGTTCATCCTGCTGGAGCTCATGGCGGG
DNA 2: CCCGCCATGAGCTCCAGCA
modifications: 3' inverted dT on template
Take B4: in data set [2], the binding result was “binds”.

B5: ALK-G1 primer-template (dsDNA)
DNA 1: GTGAGCCTGCAATCCCTGCCCCGGTTCATCCTGCTGGAGCTCATGGCGGG
DNA 2: CCCGCCATGAGCTCCA
modifications: 3' inverted dT on template
Take B5: the binding result in data set [4] is “binds”.
